Reference: the nanobody polyreactivity screen of Harvey et al. (2022)

Experiment: yeast display, Sf9 membrane polyspecificity reagent, FACS + sequencing; frameworks hold sequencing errors
How it was run: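 Genes from sorted yeast were amplified by colony PCR, read by MiSeq 2 × 250 sequencing and filtered on CDR length. These cells carried a synthetic nanobody library in Saccharomyces cerevisiae BJ5465 and were sorted by FACS into low and high (top ~1%) gates on anti-HA and streptavidin fluorescence. Polyreactivity is labelled according to the gate of origin.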

Sequence | polyreactivity (PSR sort gate)
QVQLVESGGGLVQAGGSLRLSCAASGSIFVGNAMGWYRQAPGKERELVAAISRGGGSTYYADSVKGRFTISRDNAKNTVYLQMNSLKPEDTAVYYCAAVKYYYGSAYDYWGQGTQVTVSS | high polyreactivity
QVQLVESGGGLVQAGGSLRLSCAASGFTFSRNVLGWYRQAPGKERELIAAITTSYGGTYYADSVKGRFTISRDNAKNTVYLQMNSLKPEDTAVYYCATRYYPNTSYEYYYWGQGTQLTVSS | low polyreactivity
QVQLVESGGGLVQAGGSLRLSCAASGFIQDLYVMGWYRQAPGKERELVAAISSVGSTYADSVKGRFTISRDNAKNTVYLQMNSLKPEDTAVYYCAKDGTDYDYNYWGQGTQVTVSS | low polyreactivity
QVQLLESGGGLVQAGGSLRLSCAASGRTFAYNAMAWDRQAPGTERELVADITSGGSTYYADSVKGRFTISRDNAKNTVYLQMNSRKPEDTAVYYCAGYPQFWYWDYNYWGQGTQVTVSS | high polyreactivity
QVQLVESVGGLVQAGGSLRLSCAASGSIFYGYAMGWYRQAAGKEREFVAAITFSATSTYYADSVKGRFTISRDNAKNTVYLQMNSLKPEVTAVYYCNASHVSHYRARDYWGQGTQVTVSS | low polyreactivity
QVQLVESGGGLVQAGGSLRLSCAASGNIFARYAMGWYRQAPGKEREMVARISESGGRTYYADSVKARFTISRDNAKNTVYLQMNSLKPEDTAVYYCADRRYIQYGFKFYYWGQGTQLTVSS | high polyreactivity
QVQLVESGGGLVQAGGSLRLSCAASGRTFRRNAMGWYRQAPGKERELVATITGGGRTNYADSVKGRFTISRDNAKNTVYLQMNSLKPEDTAVYYCAAAAGSYNTGYGYWGQGTQVTVSS | high polyreactivity
QVQLVESGGGLVQAGGSLRLSCAASGRTFYVYTMGWYRQAPGKERELVAAISSGGTTNYADSVKGRFTISRDNAKNTVYLQMNSLKPEDTAVYYCATERGYRYRGPLRVNYDYWGQGTQVTVSS | low polyreactivity
QFQLEESRRGLDQAGGSLRLSCAASGSIFTLYDMGWYRQAPGKERELVAAITSGGSTDYADSVKGRFTISRDKAKNTVFLQMNSLKPEDTAVYYCAADTFYIYEDVLYVQGDYYWGQGTQVTVSS | low polyreactivity
QVQLVESGGGLVQAGGSLRLSCAASGRTFPTNAMGWYIQAPGKERELVAVISRNSGRTYYADSVKGRFTISRDNAMNTVYFQMNSLKPEDTAVYYCAADKYTRAYYYWGQGTQVTVSS | high polyreactivity
QVQLVESGGGLVQAGGSLRLSCAASGSTFKKYAIGWYRQAPGKERELVAAITWTGGSTYYADSVKGRFTISRDNAKNTVYLQMNSLKPEDTAVYYCAAYKTYAVKYYWGQGTQVTVSS | high polyreactivity
QVQLVESGGGLVQAGGSLRLSCAASGRIFSYYAMGWYRQAPGKERELVAAISRSGVRTYYADSVKGRFTISRDNAKNTVYLQMNSLKAEDTAVYYCAASGKRFAYIKGRSRPAYGYDYWGQGTQVTVSS | high polyreactivity
QVQLVESGGGLVQAGGSLRLSCAASGGTFGYNAMGWYRQAPGKERELVADITRGGITYYADSVKGRFTISRDNAKNTVYLQMNSLKPEDTAVYYCNAEYYVFSYSYGGVLRGDYWGQGTQVTVSS | high polyreactivity
QVQLVESGGGLVQAGGSLRLSCAASGLTFRRYDMGWYRQAPGKERELVAAITGGGSTYYADSVKGRFTISRDNAKNTVYLQMNSLKPEDTAVYYCAAGTWYWSYAYDYWGQGTQVTVSS | high polyreactivity
QVQLVESGGGLVQAGGSLRLSCASSGIIFYAYAMGWYRQAPGKERELVAAINFNTGRTYYADSVKGRFTISRDNAKNTVYLQMNSLKPEDTAVYYCAKSSYRNSGERDYWGQGTQVTVSS | high polyreactivity
QVQLVESGGGLVQAGGSLRLSCAASGSTFRYNAMGWYRQAPGKERELVATITSGGYTNYADSVKGRFTISRDNAKNSVYLQMNSLKPVDSAVYYCATDSLFRTYVEWDRKFDYWGQGTQVTVSS | high polyreactivity
QFQLVESGGGLVQAGGSHRLICAASGRTFPYYAKGWYRQAPGKERELVATINTGTSTNYADSVKGRFTISRDNANNTVYLQMHSLKPEDTAVYYCAAATTYGKSEYDYWGQGTQVTVSS | high polyreactivity
QVQLVESRGGLVQAGGSLRLSCAASGFIITQYAMGWYRQAPGKERELVAAISGRGGSTYYADSVKGRFTISRDNAKNTVYLQMNSLIPEDTAVYYCNTVRIGPPQDYDYWGQGTQVTVSS | high polyreactivity
QFQLVESGGGLVQAGGSLRLSCAASGSIFDGNAMGWYRQAPGKERELVAAISRRGGSTYYADSVKGRFTISRYNAKNTVYLQMNSLKPEDTAVYYCNAYLSYFDGNYWGQGTQVTVSS | high polyreactivity
QVQLVESGGGLVQAGGSLRLSCAAYGSTFSTYAMGWYRQAPGKEREMVAAITLSSGRTTYADSVKGRFTISRDNAKNTVYLQMNSLKPEDTAVYYCNAYYGAAFTYWDYYWGQGTQVTVSS | low polyreactivity
QVQLVESGGGLVQAGGSLRLSCAASGSIFPVYAMGWYRQAPGKQRELVAAITTAGRTYYADSVKGRFTISRDNAKNTVYLQMNSLKPEDTAVYYCNARSRKGLTVDGGYWGQGTQVTVSS | high polyreactivity
QVQLVESGGGLVQAGGSLRLSCAASGIIFDYYDMGWYRQAPGKERELVAAISDDGGSTYYADSVKGRFTISRDNAKNTVYLQMNSLKPEDTAVYYCAADSYYAYPYGYGYWGQGTQVTVSS | high polyreactivity

Sequence | polyreactivity (PSR sort gate)
QVQLVESGGGLVQAGGSLRLSCAASGSILYRNAMGWYRQAPGKEREFVAAISWRGGSTYYADSVKGRFTISRDNAKNTVYLQMNSLKPEDTAVYYCAKGGYRSPPGRYDGYYWGQGTQVTVSS | high polyreactivity
QVQLVDSGGGLVQAGGSLRLSCAASGITFNSYVMGLYRQAPGKERELVAVISRGGGITYYADSVKGRFTISRDNAKNTVYLQMNSLKPEDTAVSYCAADHTHGYVLYYNDNYWGQGTQVTVSS | high polyreactivity
QVQLVESGGGLVQAGGSLRLCCAASGYIFGWYTMGWYRPAPGKERELVAAISGGGRTYYADSVKGRFTISRDNAKNTVYLQKNSLKPEDTAVYYCNAYSTYIKYDYWGQGTQVTVSS | high polyreactivity
QVQLVESGGGLVQAGGSLRLSCAASGSIFGSNAMGWYRQALGKERELVAAISDSTGSTYYADSVKGRFTISRDNAKNTVYLQMNSLKPEDTAVYYCDARTYYYRWHIYDYWGQGSQVTVSS | low polyreactivity
QVQLEESGGGLVQAGGSLRLICAASGRIFDYYTMGWYRQAPGKERELVAAISSSGGSTYYADSVKGRFTISRDNAKNTVYLQMNSLKPEDPAVYYCNASVINEMNYWGQGTQVTVSS | low polyreactivity
QVQLVESGGGLVQAGGSLRLSCAASGFIFHIYAMGWYRQAPGKERELVAVITSGGSTYYADSVKGRFTISRDNAKNTVYLQMNSLKPEDTAVYYCAARYRRSWLEYDYWGQGTQVTVSS | high polyreactivity
QVQLVESGGGLVQAGGSLRLSCAASGSTFSDYAMGWYRQAPGKERELVAGITETGTTTYYADSVKGRFTISRDNAKNTVYLQMNSLKPEDTAVYYCAAYVVTYYYGTGYYSYDYWGQGTQVNVSS | low polyreactivity
QVQLLESGGGLVQAGGSLRITCAASGFTFAVYAMGWYRQAPGKERELVAAISRSGTRTYYADSVKGRFTISRDNAKNTVYLLMNSLKPEDTAVYYCAADKYRHGYDYWGQGTQVTVSS | low polyreactivity
QVQLVESGGGLVQAGGSLRLSCAASGSTISRYAMGWYRHAPGKERELVAAISWNGGDTYYADSVKGRFTISRDYAKNTVFLQMNSLKPEDTAVYYCNTPRRITRAGYWAGSRYNYWGQGTQVTVSS | high polyreactivity
QVQLVESGGGLVQAGGSLRLSCAASGSTFWWTTMGWYRQAPGTERELVAAITTGGGTYYADSVKGRFTISRDNAKNTVYLQMNSLKPEDTAVYYCNADYDSQYHYLLRYDYWGQGTQVTVSS | low polyreactivity
QVQLVESGGGLVQAGGSLRLSCAASGFTFYGNAMGWYSQAPGKERELVAAISSGGSTNYADSVKGRFTISRDNAQNTVSLQMNSLKPEDTAVYYCAASSPRQVSFPYASIGFDYWGQGTQVTVSS | low polyreactivity
QDQLVESGGGLVQAGGSLRLSCAASGLTFDSYAMGWYRQAPGKERELVAAISWNTASTYYADSVKGRFTISRDNAKNTVYLQMNSLKPEDTAVYYCAAARSRRPHYDYWRQGTQVTVSS | high polyreactivity
QVQLVESGGGLVQAGGSLRLSCAASGSTLRYYAMGSYRQAPGKERELVAAISTGGSTYYADSVKGRFTISRDNAKNTVYLQMNSLKPEDTAVYYSAADGYAHVWDYAYDYWGQGTQVTVSS | low polyreactivity
QVQLVESGGGLVQAGGSLRLSCAASGSNIATYAMGWYRQAPWKETELVAAISSTGRTYYADSVKGRFTISRDNAKNTVYLQMTRLKPVDTAVYYCNTVRYRSRYGMDYWGQGTQVTVSS | high polyreactivity
QVQLVESGGGLVQAGGSLRLSCAASGFIFYRYPMGWYRQAPGKERELVAAISYSGGSTYYADSVKGRFTISRDNAKNTVYLQMNSLKQEDTAVYYCARRQVYKFRRYDYWGQGTQVTVSS | high polyreactivity
QVQLVESVGGLVQAGGSLRLSCAASGRILRTNALGWYRKAPGKERELVAAISSDGSTYYADSVKGRFTISRDNAKNTVYLQMNSLKPEDTAVYYCAARLFYRGPRFDYWGQGTQVTVSS | low polyreactivity
QVQLVESGGGLVQAGGSLRLSCAASGRIFPLYAMGWYRKAPGKERELVAAISYSGGSTYYADSVKGRFTISRDNAKNTVYLQMISLKPEDTSVYYCAAQTARVSYRMGYWGQGTQVTVSS | high polyreactivity
QVQLVESGGCLVQAGGSLRLSCAPSGLTMHYYAMGWYRQAPATERELVAAITYSCGSTYYADSVKGRFTISLDNAKNTVYLQMNILKAEDTAVYYCAADTFPTTSEVDYWGQGTQVTVSS | low polyreactivity
QVQLVESGGGLVQAGGSLRLSCAASGIIFYFYAMGWDSQAPGKERELVAAISGTGGRTYYADSVKGRFTISRDNAKNTVYLQMNSLKPEDTAVYYCAADRGGLRWFWQVLYDYWGQGTQVTESS | low polyreactivity
QVQLVESGGGLVQAGGSLRLSCAASGSIFYNNAMGWYRQAPGKERELVAAITIGGSTNYADSVKGRFTISRDNAKNTVYLQMNSLKPEDTAVYYCAAGKPGAYRYGSIVRFDHWGQGTQVTVSS | low polyreactivity
QVQLVESGGGLVQAGGSLRLSCAASGRTFYYYAMGWYRQAPGKERELVAGITATGSSTYYADSVKGRFTISRDNAKYTVYLQMNSLKPEDTAVYYCAADGYRIDVYHADYRYDYWGQGTQVTVSS | low polyreactivity
